Measured values as given in a protein production outcome set (Wang et al. 2014).

Assay: label from the status in PepcDB records
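Also: failed if final PepcDB status was selected cloned or expressed and not failed if soluble or beyond.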

MEKIEDQFASLHIVRRSSEPKEPTYLLGIDTSKTVQADKGGLVAVLCSNGSIRIYDKETLHLLREFGGSPGLLSGVSFANSCDSVYSASTDGTVKCWDARGASEKPVQLFKGYPSCSFISFDVNCKDHVICAGAEKVDEDALLVFWDARFTSQDLSTRDPLGAYSETHSDDITQVRFHPSNPNLVVSGSTDGLVNVFDLSADKEEDALVATCNSVSSVSCIGWCGKDYKQIYCMTHDEGFCWWDLNHLDTDEPITCLNIQDVREITDVKDGHLDYLIGGLYHEKMDRLFVIGGTNTGKIHLLSCTSAGLTHVTSLHGGHAATVRSFCWNVSEDSLLTGGEDAQLLLWKPGAMEKTFTKKDSLKIASSVQQRVRVHSSDSYKKRKQQ
protein production: failed

MKKILGTLLAVLFSFMAINDSAAQNTVLRFNKDGKFKIVQFTDVHFKYGNPASDVALERIGEVLDAEHPDLVIFTGDVVYSSPADKGMLQVLGQVERRHLPFVVTFGNHDNEQGKTRAELYDLIRGVAGNLLPDRGASPSPDYILTMKSSADASKDAALLYCMDSHSYSSLKDVDGYAWLTFGQVSWYRAQSAAYTARNGGKPYPALAFFHIPLPEYNEAAANENAILRGTRMEKACAPQLNTGMFAAMKEAGDVMGVFVGHDHDNDYAVMWKNILLAYGRFTGGNTEYNHLPNGARVIVLNEGTRTFETWIRQKGGVVDSTSYPSDYVKDDWRKR
protein production: failed

HSIPYKNINLPCYFISPANDGEKRDTVMIVSGFDGTLEEEFLMRGLAAVERGYNVIHFAGPGQMDVFRKYPDTYFEPDFEQVVKRIINYFEFRQEINMAKLTLMGISFGGYFATRAASHEPRIKVLIANSPILDLHAYMCSFVKMDPCEMPDSEDFSINDLPSIPNEVMPPQLKAQTEHLIRRFGQPTFKATFHYLREFTVGDSLNHIKIPCLALLGSGEGGEPGKQFAEFCKITNSAQYEFSDFEGAGSHCQVGNVSYSNAVVYDWLDSL
protein production: not failed

IPTCKITLKETFLTSPEELYRVFTTQELVQAFTHAPATLEADRGGKFHMVDGNVSGEFTDLVPEKHIVMKWRFKSWPEGHFATITLTFIDKNGETELCMEGRGIPAPEEERTRQGWQRYYFEGIKQTFGYGA
protein production: not failed

MSKKQKPTGNTGRKNQIKGKYAERSRKNGFGKFCLILQVIMSAAFMGVLVLLDMLPLKYLALAALILFFLWCITFTTQAVRKKKGVTGKVYSILLIAVLAVGTYYIAKTNDMIAAITSGGSKVDKMVVAVLKDDPAETLEDASDYEFGVQFNTGAENMKAAVMDIQDQIGDISTTEYKSVQEQAEALISGEVDAIIYNQSYTELMENAVEGYNDQIRIIYKHEIETKFDFGGSAKDDSLTKKPFTVYISGIDTYGDDADDDRDSIRSDVNIIAVVNPTTHQILLITTPRDYYIPIPGISDGMNDKLTHAGTYGIDVSMETLGALYETDINYYVRLNFSSLIEIVDILGGVDVYSEYAFTTGWESGYEMEVQQGINHFDGKQALAFSRERHALEGGDNQRGKNQQAVITAMLKKVLSPTMLLKANSIINQVSQDVETNISQGQLNSLVKSQLKSGAKWTIQSVAASGTDGEDYCYSVPDMPLYVLYPDEEVVNSIVELANIVEEGGSLESGEALN
protein production: failed

MTHIQLDFSKTLEFFGEHELKQQQEIVKSIHKTIHEGTGAGSDFLGWVDLPVDYDKEEFSRIVEASKRIKENSDVLVVIGIGGSYLGARAAIEMLTSSFRNSNEYPEIVFVGNHLSSTYTKELVDYLADKDFSVNVISKSGTTTEPAVAFRLFKQLVEERYGKEEAQKRIFATTDKEKGALKQLATNEGYETFIVPDDVGGRYSVLTAVGLLPIATAGINIEAMMIGAAKAREELSSDKLEENIAYQYATIRNILYAKGYTTEMLINYEPSMQYFNEWWKQLFGESEGKDFKGIYPSSANYTTDLHSLGQYVQEGRRFLFETVVKVNHPKYDITIEKDSDDLDGLNYLAGKTIDEVNTKAFEGTLLAHTDGGVPNMVVNIPQLDEETFGYVVYFFELACAMSGYQLGVNPFNQPGVEAYKQNMFALLGKPGFEDLKKELEERL
protein production: failed

SYETSQHNLDAVEAVLSRLQKQTGEMAAYMVPVGYRALCVSQRESMQALRCSFVQGQSQPLLRGASSKVMLAYMPAARCEKILRYFGEDPTLDKWQSEFEKIRRHGYAVSTSEIDPGVSGISAPVMKGSKLIGAISVMAPAHRVESNKQRIILHVLQAARALPPER
protein production: not failed

LDKMSKKTRQAIRTSKNKGVDIQFGSHELLEDFAELMKKTEDRKGINLRGIDYYQKLLDTYPNNSYITMASLDVAKRLEKIEKECQIAQSERIKSLELNREKKVKQHQGTIDRLNKEIDFLKEAQKAYDRDIIPLAATLTLEFGNTSENIYAGMDDYFKSYSAPIYTWFETAQRAFERGNIWQNMGGIENDLSGGLYHFKSKFEPII
protein production: failed

VHVLIRPLQAQDREREKAFIERLSPESRHFRFLCQLREPGEAMLDQLMKVDQDRQAAYVALAHVDGELQEVGISRYATASGKDECECAVTVMDSWQHHGLGRLLLKHLIDHARAKGLRQMYSVDAAANQAMRELAKAAGFTT
protein production: failed

MNNPQCSYTVRCFFLALLVNLFLPNILPRQLASAQDVPSEASSDAPDLGVVWTPSTAPDSALAALDRIAATGATAVRLTHLPADTTATTIATRADSLGLRLYVDLPMADGSAPRPDEARPQADASLDQLRSLANRHASITHVGLARGASTTGSRRCDRLRRWTERIHDASASLHTYYVTPFVPSADRCADAVDQPLLDLRGHPRPTDRWRAWRTRTDSVGIGALGTWTRPAAASGLRVPHSAERQARYLETTLSRLLDPTRAAPPVVFVARWQDDDASLLPSRRYGLHDAAGTPRPAATVVRGLYSGTQRTFAFPDGSAPAGTSGLVLVGWGLVAVLGLLYARSLFVRETAVRYFTTPGFYREALRDGREVSFGANSLLLGLVGGSLGVAAARMARLATAQPETERVLAALPRVVGTALAPGVEHPTLAGVAVGGGALVLLLLWTGAGVAMARLGTRFTVAQGLMLVTWPCWPVLLAPPVALAAGPNAPLSPSLSTLVLLGGGTLVLLSVTLRVLFDYWRVTDAPAWTLLPLAALSPLALVGASLLVAAQYGVSFSLLWRLAVYT
protein production: failed

MSSERDLVNFLGDFSMDVAKAVIAGGVATAIGSLASFACVSFGFPVILVGGAILLTGIVCTVVLNEIDAQCHLSEKLKYAIRDGLKRQQELDKWKRENMTPFMYVLNTPPVI
protein production: failed

MKIIIIGCGKVGAYVAKQLLDSHHQVTIIERDQKRFEQVLQIFSQAEVLHGDGTSPILLEKCSVETANAVAYLTGKDEINLVGSTVAKFNYAVDRVVARVNNPKNEWLFNADMGVDSRVSQASLLASVIINEVNIESTATLLKLNDDENAIVEFVLSKGASVHGKTVKTINFPSDVVLISVHRQGQNIIPKGETVLLEGDHILAYTNSQNQEKLAQLFR
protein production: failed

MSLDRTTQQPFGNGYLSVEQANLILNHLPLEITFVNKDDIFQYYNDSVPAAEMVFKRTPSQVGRNVELCHPPKVLDKVKKVFELLRNGQRDKVNMWFQSERLGKFVYVTYAAVRDQAGDFQGVLEYVQDIKPFFELDSEFNRDEGHHHHHH
protein production: not failed

AIGMALVGTEGQWLQVNKSLSHFLGYSQDELRTMTFQQLTWPEDLNNDLEQLNMLVRGDINSYSMEKRYYTRNGDVVWALLAVSLVRHKDNKPLYFIAQIEDINDLKQSEQENQRLMERITQANDALFQEKERLHITLDSIG
protein production: failed

SMSEHSAIVTWKRKDSEAFTDNQYSRAHTWEFDGGSKILASASPHVVPVPLSVEANVDPEEAFVAALSSCHMLVFLSIAAKQRYLVESYTDNAVGILGKNSKGKTSVTKVVLRPQVVFSGTSKPTLQQLEKMHHLAHENCFIANSVETEVVTEII
protein production: not failed

MKKYLAGLAAVSVAGGAAPTLDSVQAAPEQNTQKAATTVQASASNNSSYTVNTSVLHVRAGSSTSHDIISRVYNGQSLNVIGEENGWFKININGKTGFVSGEFVSKSGAANNNVSTGGNNKVTADVLRVRTAPNTSSSVSGRVYAGQTLNVIGQENGWVKINHNGQVGYVSGEFVSGVSSNGGSSNNNTNNNNQEVKPASGNYTVNVSSLRVRTGPSTSHTTVGSVKKGQVVQVVGEVQDWFKINYAGQTAYISKDYVTKGGSNENVTEGNKQEQNNNGTIQTGGSYVVNATSLRVRTGPAAYHSVIGGVLNGTTLNVVGSENGWFKVNYQGKTGFVSSEFVKFVKGGTTTPEQPKQPEKPNQGTIGDYYINASALNVRSGEGTNYRIIGALPQGQKVQVISENSGWSKINYNGQTGYIGTRYLSKTPVGGAVDNKPNNNQNNNQNNNNNNNTGNNSGDSSSVLAYAKSMQGVPYVWGGTSANGVDCSGYIYHVFKKFGHNISRQSVAGYWSSLPKTSSPQPGDLIYFQNTYKSGPSHMGIYLGGGSFIQAGDKGVAIASLSNSYWKSHFLGYTKAP
protein production: failed

MLWGMETAVRPEPAPSPLREHLAAGLKGLHPAYFALVMATGIVSIVSDVLGLREAAALLFWLNVPAYAVLWLLVAARALRYPRALAADLASHQRGPGFFTSVAATCVLGLQLVLLRGDAAAALALWWVGMLLWCACTYAVFVALAVRDPKPTLGEGINGGWLVAVVATQSVVVLGTRALVPRYPGSEAVLFFLASLWLCGGMLYVWMISLIFYRYMFFRFSPSDLMPPYWINMGAVAISVVAGTSLAALAPGSAFLGALLPFVKGLTLMFWATATWWIPMLVLLGIWRHGGPSRIRIAYDPLYWGLVFPLGMYALCTYRLGELFAMPVLPWVARTFATVALAAWLLTAFGLAGRFLQLVVLAVRSLHAERGAAGPQPGSLERMARRS
protein production: failed

TISSGVPPELPGPPTNLGISNIGPRSVTLQFRPGYDGKTSISRWLVEAQVGVVGEGEEWLLIHQLSNEPDARSMEVPDLNPFTCYSFRMRQVNIVGTSPPSQPSRKIQTLQ
protein production: not failed

MNEILHWKRNFFLLALGRFVSILGSSVQAVAIPLFVLDLTHSGSAVALMTVAYMVPRILFTPIAGIVGDRGDRKFLMVSMDFLRGFLICFLALLAFRNSITLPVLYVSQIAMAIMDNLFDIPTGAMFPDIVPQDFLMRANSIMGMVRIFPQILGPALGGVIYGFYGIAIVFLVNGVSFVLSAISEIFIVYSRKVEKKPAKFSQILEDLKEGFLFIWNHELIRTILIFALFLNLLISPLFMVVYPYTIREVMKFSAQEFGFLETSFTLGALLGNFLIASYLSKKNMWKAMKISIFLFELPIVFLGFLVMPDFSLNRLVLFSLFFITFLIMGFLNPIINVPLDTAFQKMTPSHIRARAFSFLILVANGVTPLGSVLYGYLVDRVPVHFLYYVVGALSFLVAVLLLVALRGKELPT
protein production: failed

MDFDLWWLLAIPLVFGLGWVAARLDARQLLTEQASLPRSYFKGLNFLLNEQPDKAIDAFIEVARLDPETTELHFALGSLFRRRGETERAIRVHQNLVNRPDLPANERDHALYELGQDFLRAGLLDRAEESLRMLMEGVFAEPAKRVLLELYEVEKEWRKAIDAARELQTLQGQDYSVQIAQFCCELAQESLQRKDVSAAVEWLERALQENPKNVRATIQLGDVALGKGDTEGAIKRWRSIEQQNPAFLPLVAERLMKAYAQLGRAAEGLAWLRSKMDARLGPELLDVVYRYELDVHGIDDAVALMREQIRRQPSLMALTRLVEAEATRASEAVSHEAAAVAAPISDSALADPVEAGSNADIQRAQDLGAIRDLLQSRTRNLARYTCQECGFRARLFYWQCPGCNRWETYAPRRTEALGGSGGASM
protein production: failed

MNFQRFKAIVKKEVIQLKRDRASFGIAIMMPIVMIFLFGYAVNTELSNISMTVLDQSNSIESRELIQSFQNTGYFKVVSRVKSIEEVREKMDKGKVHAAIVIPPDFSNKLQMREESNVQLLVDGSDPTTARTAFSSGVVSGQQYGMKKLQGFGEKTSSKFQEGGVNVNTRVLYNPNLRNQNFTIPGLIGLIMQNITILLTAFALVRERERGTIEQLTVSPLKAGEIILGKLVPYIFIGYIDFLFSLVLGIKWFNVPINGSIPLLLLLGFAFVICALAIGILISTISKTQLQAMQLTILVLLPSILLSGFVFPREAMPKVIQLIGNVLPLTYFLNILRGIITKGVGVQYLSRDIAAMCCLAVILLTLSIVRFRAKPYNS
protein production: failed
